Experimental data published in article PMC7952577, “Overcoming the design, build, test bottleneck for synthesis of nonrepetitive protein-RNA cassettes”.

Experiments:
Test in all cases: iSort-seq, translational repression in E. coli Top10, 37 C
Conditions in all cases: tags: C-GFP (kept); chain copies: 2
[1] = target: MS2 coat protein V29I dlFG (Escherichia phage MS2 (Bacteriophage …, UniProt P03612, V30I;del68-81insG))
[2] = target: PP7 coat protein dlFG (Pseudomonas phage PP7 (Bacteriophage …, UniProt P03630, ins1-2LA;del68-75insSG))
[3] = target: T1, Qbeta coat protein (strain MX1) (Qbeta virus (strain MX1), UniProt Q9T0R9)
T1 sequence: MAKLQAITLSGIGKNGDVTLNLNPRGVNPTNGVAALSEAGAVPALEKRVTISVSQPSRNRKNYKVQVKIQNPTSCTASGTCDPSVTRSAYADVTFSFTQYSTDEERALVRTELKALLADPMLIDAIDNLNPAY

B1: ms2_wt_1_d1 (ssRNA)
RNA: UUAAUUAAAGAGGAGAAAGGUACCCAUGCACAUGAGGAUUACCCAUGUUGUGAGCAAGGGCGAGGAGGAUAACAUGGCCAUCAUCAAGGAGUUCAUGCGCUUCAAGGUGCACAUGGAGGG
binding signal [1]: 21.6 Rscore (log-likelihood ratio)

B2: pp7_wt_5_d1 (ssRNA)
RNA: UUAAUUAAAGAGGAGAAAGGUACCCAUGCUAAGGAGUUUAUAUGGAAACCCUUAUGUGAGCAAGGGCGAGGAGGAUAACAUGGCCAUCAUCAAGGAGUUCAUGCGCUUCAAGGUGCACAUGGAGGG
binding signal [2]: 6.62 Rscore (log-likelihood ratio)

B3: qb_NOTpre_changeBulge_0004_d2 (ssRNA)
RNA: UUAAUUAAAGAGGAGAAAGGUACCCAUGGCAUGCAUGUCUAAGACAGCAUCUGUGAGCAAGGGCGAGGAGGAUAACAUGGCCAUCAUCAAGGAGUUCAUGCGCUUCAAGGUGCACAUGGAGGG
binding signal [3]: 9.05 Rscore (log-likelihood ratio)
